Eight molecules from patent publication US20260109763A1 (DENALI THERAPEUTICS, published 2026) can be followed below.

Assay [1] has as its target T1, cynomolgus monkey PILRA on cells (cynomolgus monkey).
T1 construct: Expressed on CHO-K1 cells; also called cynoPILRA; cyno PILRA
The assay can be described thus: flow cytometry, CHO cells expressing cynoPILRA, MFI as fold over isotype control. For orientation: A flow cytometer gives signals particle by particle.

The target in assay [2] is T2, cynomolgus monkey PILRA extracellular domain (recombinant) (cynomolgus monkey).
T2 construct: also called cynoPILRA; Cyno PILRA
T2 sequence (chain, as listed by the source limits assumed): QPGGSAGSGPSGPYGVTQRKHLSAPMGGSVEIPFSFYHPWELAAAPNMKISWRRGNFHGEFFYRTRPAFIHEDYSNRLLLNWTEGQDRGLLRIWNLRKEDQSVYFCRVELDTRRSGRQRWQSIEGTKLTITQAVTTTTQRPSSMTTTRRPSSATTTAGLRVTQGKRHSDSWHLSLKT
The assay can be described thus: SPR, Biacore 8K, recombinant ECD. Background: Surface plasmon resonance follows binding to a sensor surface in real time, without labels.
Description: (§1) Antibodies were captured on Biacore™ Series S CM5 sensor chips immobilized with mouse anti-human Fab (human Fab capture kit from GE Healthcare) followed by injections of serial 3-fold dilutions of recombinant ECD reagents at a flow rate of 30 μL/min. Each sample was analyzed using a 3-minute association followed by a 10-minute dissociation. After each injection, the sensor chip was regenerated using a 5 0 mM glycine pH2.0 regeneration buffer. A 1:1 Languir model of simultaneous fitting of kₒₙ and koff was used for kinetics analysis.

Assay [3] has as its target T3, human PILRB extracellular domain (recombinant) (human, UniProt Q9UKJ0 20-191).
T3 construct: also called hPILRB
Nature of the assay: SPR, Biacore 8K, recombinant ECD.
Description: as §1

For assay [4], the target named is T4, human PILRB on cells (human, UniProt Q9UKJ0 20-227).
T4 construct: Expressed on CHO-K1 cells, or together with DAP12 on HEK293 cells (hPILRB-DAP12 OE HEK293); also called hPILRB; hPILRB-DAP12
T4 sequence (Q9UKJ0 20-227 limits assumed): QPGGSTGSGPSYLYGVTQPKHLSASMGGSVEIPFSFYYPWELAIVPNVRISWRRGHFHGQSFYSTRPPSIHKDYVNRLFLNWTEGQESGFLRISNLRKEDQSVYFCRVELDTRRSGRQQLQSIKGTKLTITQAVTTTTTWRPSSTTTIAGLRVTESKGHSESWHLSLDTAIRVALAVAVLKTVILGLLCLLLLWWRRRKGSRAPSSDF
Nature of the assay: flow cytometry, CHO cells expressing hPILRB, MFI as fold over isotype control.

Assay [5] concerns the target T4, human PILRB on cells. Nature of the assay: flow cytometry (MFI), CHO-K1 cells expressing hPILRB.
Description: Antibody binding to the cells was detected by FACS and MFI was derived from data analysis performed with the FLOJO software.
In assay [6] the target is T5, human PILRA G78 on cells (human, UniProt Q9UKJ1 20-303). Nature of the assay: cell-based or functional assay.
T5 sequence (Q9UKJ1 20-303 R78G limits assumed): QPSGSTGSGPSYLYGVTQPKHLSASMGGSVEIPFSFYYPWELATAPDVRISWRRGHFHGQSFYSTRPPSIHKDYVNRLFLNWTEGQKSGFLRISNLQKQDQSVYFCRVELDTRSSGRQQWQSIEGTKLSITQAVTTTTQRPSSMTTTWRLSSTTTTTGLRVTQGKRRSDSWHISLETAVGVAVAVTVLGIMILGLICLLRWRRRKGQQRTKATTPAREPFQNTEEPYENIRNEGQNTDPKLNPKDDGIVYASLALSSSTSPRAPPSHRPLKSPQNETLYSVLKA
Assay [7] deals with T2, cynomolgus monkey PILRA extracellular …. Nature of the assay: SPR, Biacore 8K; antibody captured via anti-human Fab, recombinant ECD injected; 1:1 fit.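 Further: CM5 sensor chip, ECD analyte in threefold dilution series at 30 µL/min, 3 min association and 10 min dissociation, kon and koff fitted simultaneously.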
Description: as §1
Assay [8] has as its target T6, human PILRA G78 extracellular domain (recombinant hPILRA ECD) (human, UniProt Q9UKJ1 20-197).
T6 construct: also called hPILRA G78
The assay is described as above.
Description: as §1

Assay [9] concerns the target T7, human PILRA R78 on cells (human, UniProt Q9UKJ1 20-303).
T7 construct: also called hPILRA R78; PILRA 78R
Nature of the assay: flow cytometry on HEK293 PILRA R78 cells with sialidase treatment; with sialidase treatment.
Description: (§2) PILRA 78G or PILRA 78R expressing HEK293 cells were treated with SialEXO (Genovis). […] It is a combination of two sialidases acting on α2-3, α2-6 and α2-8 linkages. […] Cells were then washed twice and incubated and stained with NucBlue Live Stain for 30 mins at RT.
(§3) Following the same protocol, sialidase treatment was also performed on HEK cells expressing PILRA R78.

Assay [10] deals with T7, human PILRA R78 on cells. Nature of the assay: flow cytometry on HEK293 PILRA R78 cells without sialidase treatment; without sialidase treatment.
Description: as §2, §3
In assay [11] the target is T5, human PILRA G78 on cells. The assay can be described thus: flow cytometry on HEK293 PILRA G78 cells with sialidase treatment.
Description: as §2
For assay [12], the target named is T5, human PILRA G78 on cells. Nature of the assay: flow cytometry on HEK293 cells expressing hPILRA G78.
Description: Parental HEK293 cells were labeled with NucBlue Live ReadyProbes Reagent for 30 mins. […] Antibody binding to the cells was detected by FACS and median fluorescence intensity (MFI) was derived from data analysis performed with the FLOJO software (FIGS. 1A-1C).
Assay [13] has as its target T5, human PILRA G78 on cells. Nature of the assay: flow cytometry on HEK293 PILRA G78 cells without sialidase treatment.
Description: as §2
For assay [14], the target named is T5, human PILRA G78 on cells. Nature of the assay: cell-based or functional assay. The source holds these as a separate data set.
Assay [15] concerns the target T7, human PILRA R78 on cells. The assay can be described thus: cell-based or functional assay.
Assay [16] addresses T2, cynomolgus monkey PILRA extracellular …. Nature of the assay: SPR.
Assay [17] has as its target T3, human PILRB extracellular domain …. The assay can be described thus: SPR.
The target of assay [18] is T6, human PILRA G78 extracellular domain …. Nature of the assay: SPR.
Assay [19] has as its target T8, human PILRA R78 extracellular domain (recombinant) (human, UniProt Q9UKJ1 20-197).
T8 construct: also called hPILRA R78
The assay can be described thus: SPR.

Assay [20] has as its target T6, human PILRA G78 extracellular domain …. The assay can be described thus: SPR, Biacore 8K; hPILRA ECD; antibody with wild-type Fc.
Description: as §1
Characterization for binding affinities of the humanized antibodies to hPILRA ECD were measured by SPR using a Biacore 8K instrument (Table 7).
Assay [21] addresses T5, human PILRA G78 on cells. Nature of the assay: flow cytometry on HEK293 cells expressing hPILRA G78. This is another data set of the same source.
Assay [22] addresses T5, human PILRA G78 on cells. Nature of the assay: flow cytometry on PILRA G78 expressing CHO-K1 cells (FIG. 1H).
Description: (§4) PILRA G78 or R78 overexpressing HEK293 cells were stained with NucBlue Live cell stain for 30 mins at RT. […] Cell lines were run in duplicate to account for intra-variability, for a total of N=3. The same protocol was used for CHO-K1 cells expressing hPILRA G78.
The target in assay [23] is T7, human PILRA R78 on cells. Nature of the assay: flow cytometry on PILRA R78 expressing HEK293 cells (FIG. 1F); HEK293 cells expressing PILRA R78.
Description: as §4

Changes are numbered by the printed parent chain. Read-outs that look alike come from different tables or passages of the source.

T3 sequence (Q9UKJ0 20-191 limits assumed): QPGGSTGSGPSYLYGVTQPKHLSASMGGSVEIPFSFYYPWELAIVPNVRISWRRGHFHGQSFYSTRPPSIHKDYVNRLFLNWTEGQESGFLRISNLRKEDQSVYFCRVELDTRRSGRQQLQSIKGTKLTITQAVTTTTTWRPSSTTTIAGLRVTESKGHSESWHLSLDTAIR
T7 sequence (Q9UKJ1 20-303 limits assumed): as the sequence (Q9UKJ1 20-303 R78G limits assumed) above, with G59R counted along it
T1 sequence (chain, as listed by the source limits assumed): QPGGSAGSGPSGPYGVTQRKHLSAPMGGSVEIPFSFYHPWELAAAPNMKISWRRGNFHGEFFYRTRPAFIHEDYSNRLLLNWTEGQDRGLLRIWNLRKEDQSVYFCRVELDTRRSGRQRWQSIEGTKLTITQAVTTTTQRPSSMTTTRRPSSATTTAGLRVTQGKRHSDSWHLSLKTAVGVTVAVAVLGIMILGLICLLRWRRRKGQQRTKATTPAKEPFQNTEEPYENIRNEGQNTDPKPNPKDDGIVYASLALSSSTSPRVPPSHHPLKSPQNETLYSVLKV
T6 sequence (Q9UKJ1 20-197 R78G limits assumed): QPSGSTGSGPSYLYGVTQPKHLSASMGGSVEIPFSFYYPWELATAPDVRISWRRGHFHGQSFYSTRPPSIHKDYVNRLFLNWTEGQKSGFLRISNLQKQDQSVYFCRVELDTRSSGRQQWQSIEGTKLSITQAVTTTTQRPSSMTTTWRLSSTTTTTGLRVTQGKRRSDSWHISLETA
T8 sequence (Q9UKJ1 20-197 limits assumed): as the sequence (Q9UKJ1 20-197 R78G limits assumed) above, with G59R counted along it

B1: Reference Antibody #1 (antibody, human IgG1, kappa, L234A L235A, V domains shown)
VH: QVTLQESGPGILQPSQTLSLTCSFSGFSLSTFGMGVGWIRQPSGKGLEWLAHIWWDDDKYYNPALKSRLTISKDTSKNQVFLKIASVDTADIATYYCARVEDYGNPFDYWGQGTTLTVSS
VL: DIQMNQSPSSLSASLGDTITITCHASQNIHVWLNWYQQKPGNIPKLLIYKASNLHTGVPSRFSGSGSGTGFTVTISSLQPEDIATYYCQQGQSYPLTFGAGTKLELKR
Take B1: the binding result is on record as “no binding (tested: 100 nM)” in assay [1], “no binding” in assay [2], “no binding” in [3] and “no binding (tested: 100 nM)” with human PILRB on cells [4].

B2: Reference Antibody #2 (antibody, human IgG1, kappa, L234A L235A, V domains shown)
VH: QVILKESGPGILQSSQTLSLTCSFSGFSLSTFGMGVGWIRQPSGKGLESLAHIWWDDDKFYNPALKSRLTISKDTSKSQVFLKIANVDTADIATYYCTRIEDYGSYFAYWGQGTTLTVSS
VL: B1 VL with I2V, T18P, K39R, K45R, V73L, L96Y, A100G, L106I
As to B2, the binding result is recorded as “no binding (tested: 100 nM)” in [1], “no binding” in assay [2], “no binding” in [3] and “no binding (tested: 100 nM)” in the assay with human PILRB on cells [4].

B3: Reference Antibody #4 (antibody, human IgG1, kappa, L234A L235A, V domains shown)
VH: B1 VH with Q5K, S30T, T75I, S86N, I92T, V100I
VL: B1 VL with N34S, V73L
Consider B3, for which the binding result in [1] is reported as “no binding (tested: 100 nM)”; in assay [2], “no binding”; in assay [3], “no binding”; with human PILRB on cells [4], “no binding (tested: 100 nM)”.

B4: Anti-PILRA antibody clone 5 (antibody, human IgG1, kappa, L234A L235A, V domains shown)
VH: QVQLVQSGAEVKKPGASVRVSCKASGYTFIGFYIHWVRQAPGQGLEWMGWINPESGDTTYAQKFQGRVTMTTDTSINTAYMDLNRLRSDDSAVYFCARGNWNFPDTFDFWGQGTMVIVSS
VL: DIQMTQSPSSLSASVGDRVTITCRSSQSISIYLNWHQQIPGKAPKLLIYVASSLQSGIPSRFSGRGSGTEFTLTISSLQPEDFATYYCQQSYSAPFTFGPGTKVDIKR
notes: also called Ab; Clone 5; Ab.5
Usually Kd stands for a measure of binding affinity in units of concentration. Usually EC50 stands for the midpoint of the concentration-response curve. For B4, the results for the binding result (with human PILRB on cells [5]; in assay [3]) were “no binding (tested: 100 nM)” and “no binding”, respectively. In the assay with human PILRA G78 on cells [6], the “pSTAT3 Y705 induction, EC50 (nM)” value worked out at 1.51 nM. For the same molecule, the “pSTAT3 Y705 induction, Fold Over Background” value in the assay with human PILRA G78 on cells [6] stood at 15.8 fold. Moreover, the Kd in assay [7] is 19 nM; in [8], 0.66 nM. The EC50 in the assay with human PILRA R78 on cells [9] came out at 0.9 nM; in the assay with human PILRA R78 on cells [10], 1.3 nM; with human PILRA G78 on cells [11], 9.8 nM; with human PILRA G78 on cells [12], 32.5 nM; in the assay with human PILRA G78 on cells [13], 17 nM.

B5: Anti-PILRA antibody clone 15 (antibody, V domains shown)
VH: EVQLVQSGAEVKKPGASVKVSCKASGYTFTEYYMYWVRQAPGQGLELIGRIDPEDGGTDYIEKFKNRSTLTADTSTSTAYLELSSLRSEDTAVYFCATTIRGTVFAFWGQGTLVTVSS
VL: DIQMTQSPSSLSASVGDRVTITCRASEDIFNGLAWYQQKPGKSPKLLIYNAKTLHTGVPSRFSGSGSGSDYTLTISSLQPEDFATYFCQQYYDYPLTFGQGTKVEIK
notes: Humanized; also called Ab.15
Consider B5, for which the results for the “pSTAT3 S727 induction, EC50 (nM)” value in the assay with human PILRA G78 on cells [14] and with human PILRA R78 on cells [15] were 17.5 nM and 12.7 nM, respectively. Further, the “pSTAT3 S727 induction, Fold Over Background” value came to 32.2 fold in the assay with human PILRA G78 on cells [14] and 24.8 fold in the assay with human PILRA R78 on cells [15]. Further, the “pSTAT3 Y705 induction, EC50 (nM)” value with human PILRA G78 on cells [14] worked out at 16.9 nM; with human PILRA R78 on cells [15] it was 5.66 nM. Further, the “pSTAT3 Y705 induction, Fold Over Background” value was determined as 33.5 fold with human PILRA G78 on cells [14] and 38.2 fold in the assay with human PILRA R78 on cells [15]. Also, the Kd came out at 0.72 nM in assay [16]; 95 nM in assay [17]; 0.65 nM in assay [18]; 10 nM in assay [19]; 0.917 nM in [20]. Further, the half-maximal effective concentration (EC50) with human PILRA G78 on cells [21] turned out to be 11.2 nM; with human PILRA G78 on cells [22], 9 nM; in the assay with human PILRA R78 on cells [23], 2.7 nM.

B6: Anti-PILRA antibody clone 23 (antibody, V domains shown)
VH: B5 VH with I61V, S68A, T98S, A106V, F107Y
VL: B5 VL with A25P, F30Y, S43A, K52N, T53S, S69T, F87Y
notes: Humanized; also called Ab.23
As for B6, the “pSTAT3 S727 induction, EC50 (nM)” value is 20.1 nM with human PILRA G78 on cells [14] and 14.6 nM with human PILRA R78 on cells [15]. For the same molecule, the “pSTAT3 S727 induction, Fold Over Background” value in the assay with human PILRA G78 on cells [14] came out at 23.6 fold; in the assay with human PILRA R78 on cells [15], 28.5 fold. Further, the results for the “pSTAT3 Y705 induction, EC50 (nM)” value with human PILRA G78 on cells [14] and with human PILRA R78 on cells [15] were 12.2 nM and 7.55 nM, respectively. The results for the “pSTAT3 Y705 induction, Fold Over Background” value with human PILRA G78 on cells [14] and with human PILRA R78 on cells [15] were 31.4 fold and 36.2 fold, respectively. The Kd turned out to be 7.3 nM in assay [16]; 117 nM in [17]; 2.8 nM in [18]; 47 nM in [19]; 0.495 nM in assay [20]. The values for the EC50 with human PILRA G78 on cells [21], with human PILRA G78 on cells [22] and in the assay with human PILRA R78 on cells [23] were 21.4 nM, 18.2 nM and 3.7 nM, respectively.

B7: Anti-PILRA antibody clone 4 (antibody, human IgG1, kappa, L234A L235A, V domains shown)
VH: EVQLVESGGGLVQPGRSLRLSCAASGFTFDDYAIHWVRQAPGKGLEWVSGMSWNSGSIGYGDSVKGRFTISRDNAKNSLYLQMNSLRAEDTAFYYCAKDKSIGAAGRFDSWGQGTLVTVSS
VL: not shown
notes: also called Ab; Clone 4; Ab.4
For B7, the values for the binding result (with human PILRB on cells [5]; in assay [3]) were “no binding (tested: 100 nM)” and “no binding”, respectively. For the same molecule, the “pSTAT3 Y705 induction, EC50 (nM)” value in the assay with human PILRA G78 on cells [6] was found to be 1.98 nM. The “pSTAT3 Y705 induction, Fold Over Background” value with human PILRA G78 on cells [6] was determined as 14.7 fold. For the same molecule, the figures for the Kd in [7] and in assay [8] were 7.4 nM and 8.3 nM, respectively. The molecule also registered an EC50 in the assay with human PILRA G78 on cells [12] of 24.9 nM.

B8: Anti-PILRA antibody clone 1 (antibody, V domains shown)
VH: B7 VH with A24V, I34M, M51F, G61P, G103S, S110Y
VL: DIQMTQSPSSLSASVGDRVTITCQASRRINNYLNWYQQKPGKAPKLLIYDASNLETGVPSRFTGSGSGTDFTLTISSLQPEDIATYYCQQYDNLPLTFGGGTKIKIK
Regarding B8, the binding result with human PILRB on cells [5] was “no binding (tested: 100 nM)”; in assay [3], “no binding”. Also, in the assay with human PILRA G78 on cells [6], the “pSTAT3 Y705 induction, EC50 (nM)” value stood at 5.66 nM. The “pSTAT3 Y705 induction, Fold Over Background” value in the assay with human PILRA G78 on cells [6] was 16.2 fold. The Kd was 0.91 nM in assay [7] and 2.3 nM in assay [8]. The EC50 in the assay with human PILRA R78 on cells [9] turned out to be 5.6 nM; with human PILRA R78 on cells [10], 14 nM; with human PILRA G78 on cells [11] it was 1.8 nM; with human PILRA G78 on cells [12] it was 13.8 nM; in the assay with human PILRA G78 on cells [13], 6.8 nM.
